Laboratory results reported in article PMC2892007, “The Terminal Immunoglobulin-Like Repeats of LigA and LigB of Leptospira Enhance Their Binding to Gelatin Binding Domain of Fibronectin and Host Cells” (PLoS ONE, 2010).

Legend:
Conditions in all cases: both partners purified
[1] = biological target: T1, Gelatin-binding domain of human plasma fibronectin (human); assay: SEC-MALS; mixtures of Lig protein and GBD on Superose 6, 20 mM HEPES, 150 mM NaCl, pH 7.5
T1 construct: also called GBD; source: bought: Sigma-Aldrich

[2] = biological target: T1, Gelatin-binding domain of human plasma …; assay: SPR
[3] = biological target: T1, Gelatin-binding domain of human plasma …; assay: ITC; GBD in the cell (1 ml), Lig protein in the syringe (250 µl), 25 injections of 10 µl, 25°C, Tris buffer with 100 µM CaCl2; independent binding model
[4] = biological target: T1, Gelatin-binding domain of human plasma …; assay: as above; remark: listed apart in the source
[5] = biological target: T1, Gelatin-binding domain of human plasma …; assay: ELISA

| Binder | stoichiometry N [1] | koff [2] [s⁻¹] | kon [2] [M⁻¹ s⁻¹] | Kd [3] [nM] | dH [3] [kcal/mol] | stoichiometry N [3] | Kd [4] [nM] | dH [4] [kcal/mol] | stoichiometry N [4] | Kd [5] [nM] |
| --- | --- | --- | --- | --- | --- | --- | --- | --- | --- | --- |
| LigAVar7'-8 (domain or fragment, biotin (in the ELISA)) LTVSNTNAKRGLGSTLKQGTVKVTASMGGIEDSVDFTVTQATLTSIEVSPTRASIAKGMTQKFTATGIFTDHSKKNITEQVTWKSSSKALSMLNAPGEEGTGKAIAVGKHYYYCNLRKTFRENRYYRYSRNSYFN | 0.95 GBD: Lig | 0.00501 | 750 | 6750 ± 110 | -28.6 ± 5.14 | 1.01 ± 0.04 Lig: GBD | – | – | – | – |
| LigAVar10 (domain or fragment, biotin (in the ELISA)) LSVTAAELIEIVLDPTSSHKAKGLTENFKATGVFTDNSTKDITDQVTWKSSKTAYAKISNATGSKRVVNAISKGTSHISATLGSISSANATFQVTPAKVV | – | 0.00506 | 1190 | – | – | – | – | – | – | – |
| Histidine-tagged LigBCen2R (domain or fragment) TATYNSISENIDITVSAATLSSISISPINTNINATVSKQFFAVGTYSDGTKADLTSSVTWSSSNKSQAKVSNASKTKGLVTGIASGNSIITATYGSVSGNTILTVNKTDTI | – | 0.00923 | 4830 | – | – | – | 1880 ± 90 | -29.2 ± 3.58 | 0.995 ± 0.01 | – |
| LigAVar13 (domain or fragment, biotin (in the ELISA)) ITISLSSISKTKGSTHQFKATGKFENGAEIDLTELVTWSSSNPTVVSISNVDDERGLATALSVGSSKISVDYNSISSSIDFEVTPEILASIKTEP | – | 0.0053 | 510 | – | – | – | – | – | – | – |
| LigAVar11 (domain or fragment, biotin (in the ELISA)) FQVTPAKVVSIEVIPNNISFAKGNSYQFKATGIYTDHSEADITEQVTWSSSNPKIASVENTFGSAGLVNTTNIGSTNITAKLSDTVSGASVLNVTPALLRY | – | 0.00599 | 1190 | – | – | – | – | – | – | – |
| LigBCen7'-12 (domain or fragment, biotin (in the ELISA)) AEITNTSGSKGITNTLTPGSSEISAALGSIKSSKVILKVTPAQLISIAVTPINPSVAKGLIRQFKATGTYTDHSVQDVTALATWSSSNPRKAMVNNVTGSVTTVATGNTNIKATIDSISGSSVLNVTPALLTSIEITPTINSITHGLTKQFKATGIFSDKSTQNLTQLVTWISSDPSKIEIENTSGKKGIATASKLGSSNIKAVYKFIQSSPIPITVTDLKLKSITISPSSSSIAKGLTQQFKAIGTFIDGSEQEITNLVTWYSSKSDVAPINNAANEKGLATALSIGSSDIYAIYNSISSNKINFNVSAATLDSIKINPVNNNIAKGLTQQYTALGVYSDSTIQDISDSVTWSSSNSSSISISNSTETKGKATALQIGNSKITATYNSISENIDITVSAATLSSISISPINTNINTTVSKQFFAVGTYSDGTKADLTSSVTWSSSNQSQAKVSNASETKGLVTGIASGNPTIIATYGSVSGNTILTVNKTDTI | 3.03 GBD: Lig | – | – | 49 ± 2 | -95.7 ± 3.85 | 0.33 ± 0.02 Lig: GBD | – | – | – | 49 ± 7 |
